Test results published in patent publication US20240293512A1 (HANMI PHARM, published 2024).
Bridge positions count the residues as written; N and C are the ends. Square brackets hold non-standard residues; d marks the D form. Ends that are not written are not given here. * marks the point of attachment. Acetyl(2-(4-imidazolyl)) = O=C(Cc1c[nH]cn1)*; Aib = CC(C)(N)C(=O)O

Tests used:
Assay in all cases: cell-based or functional assay
human GCG receptor = human GCG receptor (human, UniProt P47871 26-477)
human GLP-1 receptor = human GLP-1 receptor (human, UniProt P43220 24-463)
human GIP receptor = target: T1, human GIP receptor (human, UniProt P48546 22-466)
T1 sequence (looked up): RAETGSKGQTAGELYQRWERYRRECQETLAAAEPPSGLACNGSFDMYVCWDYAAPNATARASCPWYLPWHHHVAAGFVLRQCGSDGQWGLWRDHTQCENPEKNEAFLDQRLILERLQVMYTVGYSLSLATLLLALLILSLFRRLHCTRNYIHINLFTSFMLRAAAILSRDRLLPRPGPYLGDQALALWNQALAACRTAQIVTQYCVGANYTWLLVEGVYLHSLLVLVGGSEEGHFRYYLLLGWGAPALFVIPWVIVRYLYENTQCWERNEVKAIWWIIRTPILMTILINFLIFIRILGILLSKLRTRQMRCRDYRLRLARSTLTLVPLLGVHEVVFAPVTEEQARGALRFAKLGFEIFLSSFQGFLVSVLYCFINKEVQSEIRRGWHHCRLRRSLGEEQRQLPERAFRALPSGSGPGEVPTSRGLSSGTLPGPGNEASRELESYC

Sequence of human GCG receptor (P47871 26-477): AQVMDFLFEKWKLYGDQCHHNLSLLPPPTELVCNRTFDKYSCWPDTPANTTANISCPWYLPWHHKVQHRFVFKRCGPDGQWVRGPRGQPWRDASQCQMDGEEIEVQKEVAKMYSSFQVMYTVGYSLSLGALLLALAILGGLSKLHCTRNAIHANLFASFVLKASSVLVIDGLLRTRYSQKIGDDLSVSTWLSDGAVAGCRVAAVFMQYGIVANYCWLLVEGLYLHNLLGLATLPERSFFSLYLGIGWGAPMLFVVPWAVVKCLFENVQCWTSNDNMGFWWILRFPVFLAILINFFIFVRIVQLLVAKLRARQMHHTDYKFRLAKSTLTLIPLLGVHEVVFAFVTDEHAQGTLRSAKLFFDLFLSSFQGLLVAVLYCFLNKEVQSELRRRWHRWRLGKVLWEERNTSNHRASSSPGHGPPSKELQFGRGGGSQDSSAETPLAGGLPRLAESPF

H[Aib]QGTFTSDYSKYLDGQHAQCFVAWLLAGGGPSSGAPPPS [triple agonist of SEQ ID NO: 39]
In vitro activity compared with native peptide (%) vs Glucagon (cAMP EC50) (human GCG receptor): 0.53%
In vitro activity compared with native peptide (%) vs GLP-1 (cAMP EC50) (human GLP-1 receptor): 13.9%
In vitro activity compared with native peptide (%) vs GIP (cAMP EC50) (human GIP receptor): < 0.1%

H[Aib]EGTFTSDYSIAMDEIHQKDFVNWLLAQC (bridge 16-20) [triple agonist of SEQ ID NO: 53]
In vitro activity compared with native peptide (%) vs Glucagon (cAMP EC50) (human GCG receptor): 8.4%
In vitro activity compared with native peptide (%) vs GLP-1 (cAMP EC50) (human GLP-1 receptor): 161%
In vitro activity compared with native peptide (%) vs GIP (cAMP EC50) (human GIP receptor): 1.3%

Y[Aib]QGTFTSDYSKYLDEKRAKEFVQWLLDHHPSSGQPPPSC (not fully specified (bridges)) [triple agonist of SEQ ID NO: 42]
In vitro activity compared with native peptide (%) vs Glucagon (cAMP EC50) (human GCG receptor): 206%
In vitro activity compared with native peptide (%) vs GLP-1 (cAMP EC50) (human GLP-1 receptor): 33.9%
In vitro activity compared with native peptide (%) vs GIP (cAMP EC50) (human GIP receptor): 7.8%

H[Aib]EGTFTSDYSIAMDEIHQKDFVDWLLAEC (bridge 16-20) [triple agonist of SEQ ID NO: 54]
In vitro activity compared with native peptide (%) vs Glucagon (cAMP EC50) (human GCG receptor): 1.4%
In vitro activity compared with native peptide (%) vs GLP-1 (cAMP EC50) (human GLP-1 receptor): 30.6%
In vitro activity compared with native peptide (%) vs GIP (cAMP EC50) (human GIP receptor): 0.1%

HGQGTFTSDCSKQLDGQAAQEFVAWLLAGGPSSGAPPPS [triple agonist of SEQ ID NO: 44]
In vitro activity compared with native peptide (%) vs Glucagon (cAMP EC50) (human GCG receptor): < 0.1%
In vitro activity compared with native peptide (%) vs GLP-1 (cAMP EC50) (human GLP-1 receptor): 1.3%
In vitro activity compared with native peptide (%) vs GIP (cAMP EC50) (human GIP receptor): < 0.1%

HGQGTFTSDCSKYLDEQHAQEFVAWLLAGGPSSGAPPPS [triple agonist of SEQ ID NO: 46]
In vitro activity compared with native peptide (%) vs Glucagon (cAMP EC50) (human GCG receptor): < 0.1%
In vitro activity compared with native peptide (%) vs GLP-1 (cAMP EC50) (human GLP-1 receptor): 1.4%
In vitro activity compared with native peptide (%) vs GIP (cAMP EC50) (human GIP receptor): < 0.1%

HGQGTFTSDCSKYLDGQRAQDFVNWLLAGGPSSGAPPPS [triple agonist of SEQ ID NO: 48]
In vitro activity compared with native peptide (%) vs Glucagon (cAMP EC50) (human GCG receptor): < 0.1%
In vitro activity compared with native peptide (%) vs GLP-1 (cAMP EC50) (human GLP-1 receptor): 1.5%
In vitro activity compared with native peptide (%) vs GIP (cAMP EC50) (human GIP receptor): < 0.1%

HGQGTFTSDCSKYMDGQAAQDFVAWLLAGGPSSGAPPPS [triple agonist of SEQ ID NO: 45]
In vitro activity compared with native peptide (%) vs Glucagon (cAMP EC50) (human GCG receptor): < 0.1%
In vitro activity compared with native peptide (%) vs GLP-1 (cAMP EC50) (human GLP-1 receptor): 6.6%
In vitro activity compared with native peptide (%) vs GIP (cAMP EC50) (human GIP receptor): < 0.1%

HGQGTFTSDCSKYLDGQRAQEFVAWLLAGGPSSGAPPPS [triple agonist of SEQ ID NO: 47]
In vitro activity compared with native peptide (%) vs Glucagon (cAMP EC50) (human GCG receptor): < 0.1%
In vitro activity compared with native peptide (%) vs GLP-1 (cAMP EC50) (human GLP-1 receptor): 2.4%
In vitro activity compared with native peptide (%) vs GIP (cAMP EC50) (human GIP receptor): < 0.1%

H[Aib]QGTFTSDYSKYLDEKRQKEFVNWLLAQKC (bridge 16-20) [triple agonist of SEQ ID NO: 34]
In vitro activity compared with native peptide (%) vs Glucagon (cAMP EC50) (human GCG receptor): 0.92%
In vitro activity compared with native peptide (%) vs GLP-1 (cAMP EC50) (human GLP-1 receptor): 19.1%
In vitro activity compared with native peptide (%) vs GIP (cAMP EC50) (human GIP receptor): 0.6%

[Acetyl(2-(4-imidazolyl))][Aib]QGTFTSDYSICMDEIHQKDFVNWLLNTK (bridge 16-20) [triple agonist of SEQ ID NO: 49]
In vitro activity compared with native peptide (%) vs Glucagon (cAMP EC50) (human GCG receptor): < 0.1%
In vitro activity compared with native peptide (%) vs GLP-1 (cAMP EC50) (human GLP-1 receptor): 29.8%
In vitro activity compared with native peptide (%) vs GIP (cAMP EC50) (human GIP receptor): 3.3%

B1: triple agonist of SEQ ID NO: 56 (peptide)
peptide: H[Aib]QGTFTSDYSKYLDEKRQKEFVNWLLAQC
modifications: bridge (positions not given here); also: ring formation between two underlined residues
In vitro activity compared with native peptide (%) vs Glucagon (cAMP EC50) (human GCG receptor): 4.9%
In vitro activity compared with native peptide (%) vs GLP-1 (cAMP EC50) (human GLP-1 receptor): 57.9%
In vitro activity compared with native peptide (%) vs GIP (cAMP EC50) (human GIP receptor): 0.8%

H[Aib]QGTFTSDYSKYLDECRQKEFVQWLLNGGPSSGAPPPSG (bridge 16-20) [triple agonist of SEQ ID NO: 37]
In vitro activity compared with native peptide (%) vs Glucagon (cAMP EC50) (human GCG receptor): 6.21%
In vitro activity compared with native peptide (%) vs GLP-1 (cAMP EC50) (human GLP-1 receptor): 236%
In vitro activity compared with native peptide (%) vs GIP (cAMP EC50) (human GIP receptor): 2.2%

[Acetyl(2-(4-imidazolyl))][Aib]QGTFTSDKSSYLDERAAQDFVQWLLDGGPSSGAPPPSS [triple agonist of SEQ ID NO: 38]
In vitro activity compared with native peptide (%) vs GLP-1 (cAMP EC50) (human GLP-1 receptor): 2.3%

Y[Aib]QGTFTSDYSKYLDEKRAKEFVQWLLDHHCSSGQPPPS (not fully specified (bridges)) [triple agonist of SEQ ID NO: 43]
In vitro activity compared with native peptide (%) vs Glucagon (cAMP EC50) (human GCG receptor): 88.4%
In vitro activity compared with native peptide (%) vs GLP-1 (cAMP EC50) (human GLP-1 receptor): 12.6%
In vitro activity compared with native peptide (%) vs GIP (cAMP EC50) (human GIP receptor): 3.7%

H[Aib]QGTFTSDYSKYLCEKRQKEFVQWLLNGGPSSGAPPPSG (bridge 16-20) [triple agonist of SEQ ID NO: 36]
In vitro activity compared with native peptide (%) vs Glucagon (cAMP EC50) (human GCG receptor): 0.39%
In vitro activity compared with native peptide (%) vs GLP-1 (cAMP EC50) (human GLP-1 receptor): 37.4%
In vitro activity compared with native peptide (%) vs GIP (cAMP EC50) (human GIP receptor): 0.2%

H[Aib]QGTFTSDVSSYLLGQQQKEFIAWLVKGGGPSSGAPPPSC [triple agonist of SEQ ID NO: 5]
In vitro activity compared with native peptide (%) vs Glucagon (cAMP EC50) (human GCG receptor): < 0.1%
In vitro activity compared with native peptide (%) vs GLP-1 (cAMP EC50) (human GLP-1 receptor): 42.1%
In vitro activity compared with native peptide (%) vs GIP (cAMP EC50) (human GIP receptor): < 0.1%

H[Aib]QGTFTSDVSSYLDGQAAKEFIAWLVKGC [triple agonist of SEQ ID NO: 1]
In vitro activity compared with native peptide (%) vs Glucagon (cAMP EC50) (human GCG receptor): < 0.1%
In vitro activity compared with native peptide (%) vs GLP-1 (cAMP EC50) (human GLP-1 receptor): 3.2%
In vitro activity compared with native peptide (%) vs GIP (cAMP EC50) (human GIP receptor): < 0.1%

H[Aib]QGTFTSDYSIAMDEIHQKDFVNWLLNTKC (bridge 16-20) [triple agonist of SEQ ID NO: 35]
In vitro activity compared with native peptide (%) vs Glucagon (cAMP EC50) (human GCG receptor): < 0.1%
In vitro activity compared with native peptide (%) vs GLP-1 (cAMP EC50) (human GLP-1 receptor): 7.5%
In vitro activity compared with native peptide (%) vs GIP (cAMP EC50) (human GIP receptor): 1.3%

H[Aib]QGTFTSDYSIAMDEIHQKDFVNWLLNTC (bridge 16-20) [triple agonist of SEQ ID NO: 57]
In vitro activity compared with native peptide (%) vs Glucagon (cAMP EC50) (human GCG receptor): < 0.1%
In vitro activity compared with native peptide (%) vs GLP-1 (cAMP EC50) (human GLP-1 receptor): 11.7%
In vitro activity compared with native peptide (%) vs GIP (cAMP EC50) (human GIP receptor): 0.3%

H[Aib]QGTFTSDKSKYLDECAAQDFVQWLLDGGPSSGAPPPS [triple agonist of SEQ ID NO: 41]
In vitro activity compared with native peptide (%) vs Glucagon (cAMP EC50) (human GCG receptor): < 0.1%
In vitro activity compared with native peptide (%) vs GLP-1 (cAMP EC50) (human GLP-1 receptor): 34.3%
In vitro activity compared with native peptide (%) vs GIP (cAMP EC50) (human GIP receptor): < 0.1%

H[Aib]QGTFTSDYSKYLDEKRQKEFVQWLLNTKC (bridge 16-20) [triple agonist of SEQ ID NO: 58]
In vitro activity compared with native peptide (%) vs Glucagon (cAMP EC50) (human GCG receptor): 2.6%
In vitro activity compared with native peptide (%) vs GLP-1 (cAMP EC50) (human GLP-1 receptor): 39.1%
In vitro activity compared with native peptide (%) vs GIP (cAMP EC50) (human GIP receptor): 0.2%

H[Aib]QGTFTSDYSKYLDEKRQKEFVQWLLDTC (bridge 16-20) [triple agonist of SEQ ID NO: 52]
In vitro activity compared with native peptide (%) vs Glucagon (cAMP EC50) (human GCG receptor): 7.5%
In vitro activity compared with native peptide (%) vs GLP-1 (cAMP EC50) (human GLP-1 receptor): 44.1%
In vitro activity compared with native peptide (%) vs GIP (cAMP EC50) (human GIP receptor): 0.3%

H[Aib]QGTFTSDVSSYLDGQAAKEFVAWLLKGC [triple agonist of SEQ ID NO: 6]
In vitro activity compared with native peptide (%) vs Glucagon (cAMP EC50) (human GCG receptor): < 0.1%
In vitro activity compared with native peptide (%) vs GLP-1 (cAMP EC50) (human GLP-1 receptor): 17%
In vitro activity compared with native peptide (%) vs GIP (cAMP EC50) (human GIP receptor): < 0.1%

H[Aib]QGTFTSDYSKYLDEKRAKEFVQWLLDHHPSSGQPPPSC (bridge 16-20) [triple agonist of SEQ ID NO: 50]
In vitro activity compared with native peptide (%) vs Glucagon (cAMP EC50) (human GCG receptor): 50.5%
In vitro activity compared with native peptide (%) vs GLP-1 (cAMP EC50) (human GLP-1 receptor): 67.4%
In vitro activity compared with native peptide (%) vs GIP (cAMP EC50) (human GIP receptor): 2.7%

H[Aib]QGTFTSDVSSYLLGQQQKEFIAWLVKGC [triple agonist of SEQ ID NO: 4]
In vitro activity compared with native peptide (%) vs Glucagon (cAMP EC50) (human GCG receptor): < 0.1%
In vitro activity compared with native peptide (%) vs GLP-1 (cAMP EC50) (human GLP-1 receptor): 8.5%
In vitro activity compared with native peptide (%) vs GIP (cAMP EC50) (human GIP receptor): < 0.1%

H[Aib]QGTFTSDYSIAMDEIHQKDFVNWLLAQC (bridge 16-20) [triple agonist of SEQ ID NO: 55]
In vitro activity compared with native peptide (%) vs Glucagon (cAMP EC50) (human GCG receptor): 0.7%
In vitro activity compared with native peptide (%) vs GLP-1 (cAMP EC50) (human GLP-1 receptor): 27.1%
In vitro activity compared with native peptide (%) vs GIP (cAMP EC50) (human GIP receptor): 2.4%

H[Aib]QGTFTSDYSKYLDEKRQKEFVQWLLNTC (bridge 16-20) [triple agonist of SEQ ID NO: 51]
In vitro activity compared with native peptide (%) vs Glucagon (cAMP EC50) (human GCG receptor): 2%
In vitro activity compared with native peptide (%) vs GLP-1 (cAMP EC50) (human GLP-1 receptor): 14.4%
In vitro activity compared with native peptide (%) vs GIP (cAMP EC50) (human GIP receptor): 0.1%

H[Aib]QGTFTSDKSKYLDERACQDFVQWLLDGGPSSGAPPPS [triple agonist of SEQ ID NO: 40]
In vitro activity compared with native peptide (%) vs Glucagon (cAMP EC50) (human GCG receptor): < 0.1%
In vitro activity compared with native peptide (%) vs GLP-1 (cAMP EC50) (human GLP-1 receptor): 75.2%
In vitro activity compared with native peptide (%) vs GIP (cAMP EC50) (human GIP receptor): < 0.1%
